The source of these data is US20140065150A1 (AGGAMIN PHARMACEUTICALS, published 2014).

This experiment has as its target T1, human sFlt-1 protein (Ig-like domains 1-3), amino acids Ser27 to Ile328, with carboxy-terminal poly-histidine … (human, UniProt P17948 27-328).
T1 construct: range 27-328; also called sFlt-1 (domains 1-3); Recombinant sFlt1 (d1-d3)
Put plainly: SPR (FIG. 2 legend: ForteBio Octet), antibody immobilized, sFlt-1 (domains 1-3) in the liquid phase; apparent Kd. On the procedure:
The apparent Kd of binding between purified monoclonal antibodies and sFlt1 was measured by surface plasmon resonance (SPR). (FIG. 2B). Antibodies were immobilized on the solid phase and sFlt-1 (domains 1-3) was in the liquid phase. There was no direct correlation between antibody affinity (as measured in a kinetic binding experiment) (FIG. 2B) and effectiveness (FIG. 2A) in the device. There was also no direct correlation with on-rates or off-rates and device effectiveness.

T1 sequence (P17948 27-328): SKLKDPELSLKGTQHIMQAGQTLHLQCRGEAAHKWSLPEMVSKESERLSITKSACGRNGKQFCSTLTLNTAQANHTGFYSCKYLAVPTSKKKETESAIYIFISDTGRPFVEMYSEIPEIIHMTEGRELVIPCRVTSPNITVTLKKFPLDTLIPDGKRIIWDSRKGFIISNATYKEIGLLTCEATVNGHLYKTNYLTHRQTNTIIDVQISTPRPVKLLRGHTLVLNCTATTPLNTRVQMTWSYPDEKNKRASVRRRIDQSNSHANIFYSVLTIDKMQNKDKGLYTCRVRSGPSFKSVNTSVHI

B1: antibody 101 (antibody, V domains shown)
VH: QVQLKQSGPGLVQPSQSLSLTCTVSGFSLTNYGVHWIRQSPGKGLEWLGVIWSGGSIDYNAVFTSRLTITKDHSKSQVFFKVNSLESNDTAIYYCARNVGYRYDDGYVMDYWGQGTSVIVSS
VL: SIVMTQTPKFLLVSAGDRVTITCKASQSVSIDVAWYQQKPGQSPKLLIYHASNRYTGVPDRFIGSRYGTDFTFTISTVQAEDLAVYFCQQNYDSPFTFGSGTKLELKR
notes: Mouse monoclonal antibody raised against human sFlt-1 (Ig-like domains 1-3)
In the case of B1, the Kd stood at 1.44 nM.
